The results in this text go back to patent publication US20210163606A1.

This assay deals with NRP2 endogenous on U251 glioblastoma cells and on human lymphatic endothelial cells (HLEC) (human) (UniProt O60462). Put plainly: cell-based or functional assay.
NRP2 endogenous on U251 glioblastoma cells and on human lymphatic endothelial cells (HLEC) (human), sequence (O60462 21-931): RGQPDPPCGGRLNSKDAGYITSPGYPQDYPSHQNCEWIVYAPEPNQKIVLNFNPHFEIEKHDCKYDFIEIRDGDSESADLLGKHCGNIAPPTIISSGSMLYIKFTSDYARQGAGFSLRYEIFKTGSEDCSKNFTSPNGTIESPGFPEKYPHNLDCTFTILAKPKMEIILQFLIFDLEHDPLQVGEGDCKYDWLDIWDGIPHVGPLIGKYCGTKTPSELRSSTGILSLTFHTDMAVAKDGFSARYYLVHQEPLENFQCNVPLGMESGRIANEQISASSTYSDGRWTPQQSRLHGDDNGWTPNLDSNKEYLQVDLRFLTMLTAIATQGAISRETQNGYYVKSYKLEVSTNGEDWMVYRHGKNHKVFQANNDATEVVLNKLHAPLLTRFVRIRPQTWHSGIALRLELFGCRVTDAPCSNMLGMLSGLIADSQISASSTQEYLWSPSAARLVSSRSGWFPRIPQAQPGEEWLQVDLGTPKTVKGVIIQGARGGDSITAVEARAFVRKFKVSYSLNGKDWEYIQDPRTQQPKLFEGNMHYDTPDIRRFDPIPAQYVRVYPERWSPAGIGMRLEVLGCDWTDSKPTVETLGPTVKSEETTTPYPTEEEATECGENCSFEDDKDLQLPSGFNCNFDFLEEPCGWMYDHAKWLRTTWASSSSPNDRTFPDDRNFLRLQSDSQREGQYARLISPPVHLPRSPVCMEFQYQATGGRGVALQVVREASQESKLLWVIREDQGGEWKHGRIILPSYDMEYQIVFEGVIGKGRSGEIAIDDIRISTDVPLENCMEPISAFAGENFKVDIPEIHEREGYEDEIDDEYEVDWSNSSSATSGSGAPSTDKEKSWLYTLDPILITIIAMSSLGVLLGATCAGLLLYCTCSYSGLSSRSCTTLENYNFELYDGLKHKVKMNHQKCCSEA

In the case of “Semaphorin 3F (SEMA3F) (from UniProt Q13275 19-779) (ligand)”, the decrease in intracellular phospho-Akt levels in U251 cells worked out at 50%.
